Here are results for one molecule from US7629135B2, “Toll-like receptor agonists and antagonists and methods of use thereof” (The Board of Trustees of the University of Illinois, priority 2006, dated 2009).

The subject of assay [1] is C57BL/6 mice. Description: Plasma G-CSF in SAA-injected mice (ELISA). Format: in vivo, mouse. How it is done: SAA stimulates neutrophilia through G-CSF: To investigate whether SAA-induced G-CSF secretion contributes to neutrophilia, in vivo studies were conducted with daily administration of SAA in mice. C57BL/6 mice were injected subcutaneously (s.c.) with a daily dose of 120 μg SAA/kg body weight (˜3 μg of SAA each mouse) for 7 consecutive days. At different time points after the injection was initiated, blood neutrophil numbers were determined and the results were compared to neutrophil numbers prior to SAA administration. […] To establish a causal relationship between SAA-induced G-CSF production and neutrophilia in mice, wild-type C57BL/6 mice wre compared with csf3^−/− mice for changes in neutrophil count.
Measurement of G-CSF expression: To measure the secreted G-CSF from human monocytes and mouse macrophages in vitro, cells were placed in serum-free DMEM medium and stimulated with the indicated ligands. Cell-free supernatants were collected by centrifugation at 1,000×g for 30 sec and assayed for human or mouse G-CSF using ELISA. Human PBMC were used as 2×10^6 cells/ml/sample, and mouse BMDM were seeded at 10^6 cells/ml and used as 0.5 ml/sample. To measure mouse plasma G-CSF, blood samples were collected and centrifuged at 1,000-2,000×g for 10 min at 4° C. Plasma samples were appropriately diluted and then checked for G-CSF concentration using ELISA. […] Real-time quantitative PCR was performed on a ABI PRISM 7000 Sequence Detection System (Applied Biosystems) as described previously (He et al., 2006). All data were analyzed with the ABI PRISM 7000 SDS software (version 1.1). Relative level of mRNA for G-CSF was determined by normalizing with β-actin mRNA level. […]
SAA-induced neutrophilia: For analysis of SAA-induced neutrophil increase, SAA was injected subcutaneously into both G-CSF deficient (csf3^−/−) (n=5) and csf3^+/+ (n=5), age- and sex-matched littermates (8-9 weeks, male), at doses of 120 μg/kg/d in 200 μl PBS. […] Total white blood cell (WBC) count and WBC differential count were determined using a Hemavet 950FS multispecies hematology analyzer (Drew Scientific).
In general terms: In an ELISA, binding on a coated surface is turned into a signal by an enzyme label.

Assay [2] deals with mouse macrophage cell line RAW264.7. Description: G-CSF secretion in RAW264.7 cells (ELISA). Format: cell-based. To be noted: SAA 1 μM, time course.
For assay [3], the system named is TLR2-HeLa cells. The experiment in a line: IL-8 secretion in TLR2-HeLa cells (ELISA). Format: cell-based, human. To be noted: SAA 1 μM, up to 24 hours. How it is done: FIG. 7 is a series of studies showing SAA-induced response in transfected HeLa cells. […] Pam3CSK4 is a known agonist for TLR2 and was used as a control. […] FIG. 7B is time course of SAA-induced IL-8 secretion in TLR2-HeLa cells compared to mock-transfected HeLa cells. SAA was used at 1 μM and the cells were stimulated for up to 24 hours. The supernatant was collected and secreted IL-8 was measured using ELISA.
In addition to the TLR2-HeLa cell line, a HeLa cell line stably expressing TLR2 and a 5xNF-κB luciferase reporter (pNF-kappaB-Luc, FIG. 13) was generated. This second cell line offers improved consistency between experiments by eliminating the need for transiently transfecting the NF-κB reporter each time an reporter assay is conducted. […] The TNFαc-stimulated reporter activity was used as an independent indicator for comparison. Both cell lines have been and will be used in characterization of SAA-induced functions and in screening assays. […] The TLR2-independent effect in IL-8 secretion was determined in parallel, in mock-transfected HeLa cells lacking the exogenous TLR2 (FIG. 7B).

B1: SAA: Recombinant human SAA purchased from PeproTech; major acute-phase protein of 104 amino acids (protein, UniProt P0DJI8 19-122, looked up)
Serum amyloid A-1 protein: RSFFSFLGEAFDGARDMWRAYSDMREANYIGSDKYFHARGNYDAAKRGPGGAWAAEVITDARENIQRFFGHGAEDSLADQAANEWGRSGKDPNHFRPAGLPEKY
Take B1: the “plasma G-CSF level” value in assay [1] (C57BL/6 mice, SAA 120 μg/kg s.c. daily, end of 7 days) is “significantly elevated G-CSF level”. For the same molecule, the “plasma G-CSF in tlr2−/− mice vs wild-type” value in assay [1] (SAA s.c. up to 7 days, 168 h) is “significantly less G-CSF”. Also, the “plasma concentration of G-CSF, maximum” value in assay [1] (SAA-injected C57BL/6 mice, 168 h) was found to be 97 pg/mL. The G-CSF production entry in assay [2] is “time-dependent production of G-CSF”. Besides, the “secretion of IL-8” value in assay [3] is reported as “time-dependent increase in the secretion of IL-8”.
